Tests used:
[1] = target: human neonatal Fc-receptor (FcRn), soluble extracellular domain with His-Avi Tag, co-expressed with beta-2-microglobulin (human) (UniProt P55899); test: FcRn affinity chromatography
[2] = target: human neonatal Fc-receptor (FcRn), soluble extracellular domain with His-Avi Tag, co-expressed with beta-2-microglobulin (human) (UniProt P55899); test: FcRn affinity chromatography, pH gradient

| retention time on FcRn affinity column [1] [min] | Substance | further results |
| --- | --- | --- |
|  | IgG1 antibody (not identified) with L234A/L235A/P329G and H435A in both Fc-region polypeptides | relative shift of retention time [1]: 0.3 to 0.4 min |
|  | IgG1 antibody (not identified) with L234A/L235A/P329G and I253A in both Fc-region polypeptides | relative shift of retention time [1]: 0.3 to 0.4 min |
|  | IgG1 antibody (not identified) with L234A/L235A/P329G and Y436A in both Fc-region polypeptides | FcRn-affinity column retention time [2]: 41.3 min |
| 51.8 | bispecific antibody (not identified) assembled using the knobs-into-holes technology, no FcRn affecting mutation |  |
| 48.4 | bispecific antibody (not identified, knobs-into-holes), one chain with H310A |  |
| 46.7 | bispecific antibody (not identified, knobs-into-holes), one chain with H310A/H433A/Y436A |  |
| 48.8 | bispecific antibody (not identified, knobs-into-holes), one chain with H435A |  |
| 48.8 | bispecific antibody (not identified, knobs-into-holes), one chain with I253A |  |
| 46.6 | bispecific antibody (not identified, knobs-into-holes), one chain with I253A/H310A/H435A |  |
| 46.3 | bispecific antibody (not identified, knobs-into-holes), one chain with L251D/L314D/L432D |  |
| 56.2 | bispecific antibody (not identified, knobs-into-holes), one chain with M252Y/S254T/T256E |  |
